From patent US20180170995A1 (LEVICEPT, published 2018)

Biological target: TrkB receptor (UniProt Q16620 32-822, limits assumed)
Test: cell-based or functional assay

Sequence of TrkB receptor (Q16620 32-822 limits assumed): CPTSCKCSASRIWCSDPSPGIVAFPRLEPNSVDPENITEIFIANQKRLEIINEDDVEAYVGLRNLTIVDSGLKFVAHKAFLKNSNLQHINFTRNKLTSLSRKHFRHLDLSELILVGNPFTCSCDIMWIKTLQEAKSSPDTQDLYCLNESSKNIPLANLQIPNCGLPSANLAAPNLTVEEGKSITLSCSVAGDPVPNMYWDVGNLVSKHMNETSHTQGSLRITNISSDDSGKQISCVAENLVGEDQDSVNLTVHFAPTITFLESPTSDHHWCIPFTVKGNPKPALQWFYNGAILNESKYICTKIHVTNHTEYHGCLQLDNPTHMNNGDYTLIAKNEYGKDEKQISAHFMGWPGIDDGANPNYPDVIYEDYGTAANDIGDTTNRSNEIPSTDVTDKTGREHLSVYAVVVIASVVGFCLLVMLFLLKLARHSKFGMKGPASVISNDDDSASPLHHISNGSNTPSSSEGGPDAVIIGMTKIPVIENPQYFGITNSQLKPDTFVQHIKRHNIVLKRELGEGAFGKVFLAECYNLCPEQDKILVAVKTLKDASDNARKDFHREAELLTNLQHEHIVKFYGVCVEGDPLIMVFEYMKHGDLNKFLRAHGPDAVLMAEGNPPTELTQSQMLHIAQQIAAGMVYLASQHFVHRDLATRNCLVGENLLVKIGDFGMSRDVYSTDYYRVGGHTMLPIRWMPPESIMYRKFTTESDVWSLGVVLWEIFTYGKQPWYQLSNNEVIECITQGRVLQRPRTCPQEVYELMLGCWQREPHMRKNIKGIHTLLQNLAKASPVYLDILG

| Binder | EC50, NT-4-induced activation of TrkB (luminescence, DiscoverX kit cells) | EC50, BDNF-induced activation of TrkB (luminescence, DiscoverX kit cells) |
| --- | --- | --- |
| neurotrophin-4 (NT-4) (ligand, UniProt P34130 81-210, looked up) GVSETAPASRRGELAVCDAVSGWVTDRRTAVDLRGREVEVLGEVPAAGGSPLRQYFFETRCKADNAEEGGPGAGGGGCRGVDRRHWVSECKAKQSYVRALTADAQGRVGWRWIRIDTACVCTLLSRTGRA | 0.012 nM | – |
| brain-derived neurotrophic factor (BDNF) (ligand, UniProt P23560 129-247, looked up) HSDPARRGELSVCDSISEWVTAADKKTAVDMSGGTVTVLEKVPVSKGQLKQYFYETKCNPMGYTKEGCRGIDKRHWNSQCRTTQSYVRALTMDSKKRIGWRFIRIDTSCVCTLTIKRGR | – | 0.7 nM |
